# Results: publication PMC9772109 (Immunity, 2022)
# B1: 789-203-3C12 AA variant mAb (Cys33Ala/Cys52Ala heavy chain with the 789-203-3C12 light chain), IgG (antibody, V domains shown)
# VH: QVQLQESGPGLVKPSEILSLTCAVSGGSFSSYAWGWIRQPPGKGLEWIGSIAGSGGSNYLNPSLKSRVTLSVDTSKNQFSLILNSVTAADTAVYYCAREGITIFGVVIPRVLDSWGQGAVVTVSS
# VL: DIQMTQSPSSLSASVGDTVTITCRASQSISSWLAWYQQKPGKAPNLLIYRASTLQSGVPSRFSGSGSGTDFTLTISSLQSEDFATYFCQQSTSSPFTFGPGTKLDIK
# Target: H1 HA (recombinant HA of Figure 4E) (Influenza A virus, H1 subtype; strain …, UniProt A0A1J0CXU0)
# Test: BLI
binder,measurement,value
B1,binding result,binds
